Test [1] has as its target T1, Avi-tag Fc with human IL-2R beta and IL-2R gamma attached (Acrobiosystems ACRB-ILG-H82F3-25UG) (human, UniProt P14784 27-239; P31785 23-262).
T1 construct: Bought; attached to the SAX2 biosensor; also called CD122 CD132; IL-2R βγ; not shown: Fc and Avi-tag
T1 sequence (looked up) 1: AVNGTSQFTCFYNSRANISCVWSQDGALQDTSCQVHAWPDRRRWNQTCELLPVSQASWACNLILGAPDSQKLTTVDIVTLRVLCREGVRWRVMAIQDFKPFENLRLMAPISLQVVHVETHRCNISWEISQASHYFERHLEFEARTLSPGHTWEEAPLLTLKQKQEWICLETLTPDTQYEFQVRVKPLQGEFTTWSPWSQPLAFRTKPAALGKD
T1 sequence (looked up) 2: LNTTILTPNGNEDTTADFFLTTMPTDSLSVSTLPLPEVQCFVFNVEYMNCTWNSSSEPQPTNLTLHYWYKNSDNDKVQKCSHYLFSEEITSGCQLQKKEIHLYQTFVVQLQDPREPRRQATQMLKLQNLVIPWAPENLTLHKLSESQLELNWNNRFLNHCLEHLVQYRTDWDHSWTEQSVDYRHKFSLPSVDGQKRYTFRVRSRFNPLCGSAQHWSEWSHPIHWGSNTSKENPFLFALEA
The test is described as follows: BLI (Octet R8), receptor on SAX2 sensor. A digest of the protocol: (§1)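 Receptor immobilized on SAX2 biosensors; analytes (intact or MMP2-cleaved activatable IL-2 constructs) started at 300 nM and serially diluted in Kinetic buffer or PBS with 0.02% Tween 20 and 0.1% BSA. Binding constants measured by biolayer interferometry; sensors regenerated with 10 mM glycine pH 2.7 between runs.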
(Biolayer interferometry detects binding as a change in optical thickness at a sensor tip.)

Test [2] has as its target T2, recombinant human IL-2 receptor beta containing a His-tag and Avi-tag (human, UniProt P14784 27-239).
T2 construct: Bought; attached to the SAX2 biosensor; also called CD122; IL-2R β; not shown: His-tag and Avi-tag
T2 sequence (looked up): T1 sequence (looked up) 1
The test is described as follows: BLI (Octet R8), receptor on SAX2 sensor; construct CMP-168, intact (no MMP2). The method, then: (§2) Bilayer interferometry (BLI) assays were used to measure the binding constants between activatable IL-2 polypeptides (and activated versions thereof) to IL-2 receptor subunits or receptor complexes. BLI assays were conducted on an Octet® R8 instrument. Assay plates were 96 well, polypropylene, F-bottom (chimney well), black microplates (Greiner Bio-one, Cat. No: 655209). The biosensors were Octet® SAX2 (Sartorius, Cat. No: 18-5136). The assay buffer was 1X Kinetic Buffer (Sartorius, Cat. no: 18-5136) or Phosphate Buffered Saline (PBS) that contained 0.02% (v: v) Tween 20 (Polysorbate 20) and 0.1% (w/v) bovine serum albumin (BSA). The sensor was regenerated between measurements in 10 mM glycine pH 2.7 buffer.
(§3) Sensor attached receptors were either recombinant human IL-2 receptor beta containing a His-tag and Avi-tag™ (R&D Systems™) or an Avi-tag™ Fc with human IL-2R beta and IL-2R gamma attached (Acrobiosystems Cat. no: ACRB-ILG-H₈₂F3-25UG). Receptors were reconstituted from lyophilized powder to 500 μg/ml in PBS. Analytes were diluted in Kinetic buffer to 300 nM, then serially diluted to lower concentrations.

Test [3] has as its target T2, recombinant human IL-2 receptor beta …. The test is described as follows: BLI (Octet R8), receptor on SAX2 sensor. In a few lines:
as §1

Test [4] has the same target. The test is described as follows: BLI (Octet R8), receptor on SAX2 sensor; CMP-168 treated with MMP2 (cleaved). The method, then:
as §2, §3

Test [5] has the same target. The test is described as follows: BLI (Octet R8), receptor on SAX2 sensor; CMP-165 treated with MMP2 (cleaved). The procedure: as §2, §3
Test [6] addresses T1, Avi-tag Fc with human IL-2R beta and …. Described as above. The procedure:
as §2, §3

Test [7] addresses T2, recombinant human IL-2 receptor beta …. Put plainly: BLI (Octet R8), receptor on SAX2 sensor; construct CMP-167, intact (no MMP2). The procedure:
as §2, §3

Test [8] has as its target T1, Avi-tag Fc with human IL-2R beta and …. The description is as above. The method, then: as §2, §3
Test [9] addresses T2, recombinant human IL-2 receptor beta …. Put plainly: BLI (Octet R8), receptor on SAX2 sensor; construct CMP-165, intact (no MMP2). The procedure: as §2, §3
In test [10] the target is T1, Avi-tag Fc with human IL-2R beta and …. The test is described as above. The method, then:
as §2, §3

Test [11] has as its target T2, recombinant human IL-2 receptor beta …. Put plainly: BLI (Octet R8), receptor on SAX2 sensor; construct CMP-166, intact (no MMP2). The procedure: as §2, §3
The target in test [12] is T1, Avi-tag Fc with human IL-2R beta and …. Described as above. The method, then:
as §2, §3

The target of test [13] is T2, recombinant human IL-2 receptor beta …. The test is described as follows: BLI (Octet R8), receptor on SAX2 sensor; CMP-167 treated with MMP2 (cleaved). The method, then: as §2, §3
Test [14] has as its target T1, Avi-tag Fc with human IL-2R beta and …. The test is described as above. The method, then: as §2, §3
Test [15] addresses T2, recombinant human IL-2 receptor beta …. Put plainly: BLI (Octet R8), receptor on SAX2 sensor; CMP-166 treated with MMP2 (cleaved). The method, then:
as §2, §3

Test [16] has as its target T1, Avi-tag Fc with human IL-2R beta and …. The test is described as above. The method, then:
as §2, §3

Bridges are numbered along the chain shown (N, C = ends). Primed or numbered codes have the meaning given here. [ ]: non-standard residue; d: D form. Ygp = O-(8x polyethylene glycol-amino)-tyrosine (Tyr, amino-capped PEG8); Yn3 = O-(9x polyethylene glycol-azido)-tyrosine (Tyr, azide-capped PEG9); Ygp″ = O-(8x polyethylene glycol-amino)-tyrosine; Yn3″ = O-(9x polyethylene glycol-azido)-tyrosine; hSer = N[C@@H](CCO)C(=O)O; Nle = CCCC[C@H](N)C(=O)O

B1: CMP-168 (ligand)
chain: APTSSSTKKTQLQLEHLLLDLQEILNGINNYKNPKLTR[Nle]L[hSer][Yn3″]KF[Ygp″][Nle]PKKATELKHLQCLEEELKPLEEVL[hSer]LAQSKNFHLRPRDLISNINVIVLELKGSETTF[hSer]CEYADETATIVEFLNRWITFSQSIISTLT
modifications: bridge 9-23; not fully specified (bridges); ends not checked
As a reminder, the koff is the rate constant with which the complex falls apart. By Kd is commonly meant a measure of binding affinity in units of concentration. As for B1, the koff in test [1] is 0.0022 s⁻¹. Moreover, the Kd in test [2] amounted to 25.1 µM.

B2: CMP-168, MMP2 cleaved (ligand)
chain: APTSSSTKKTQLQLEHLLLDLQEILNGINNYKNPKLTR[Nle]L[hSer][Yn3″]KF[Ygp″][Nle]PKKATELKHLQCLEEELKPLEEVL[hSer]LAQSKNFHLRPRDLISNINVIVLELKGSETTF[hSer]CEYADETATIVEFLNRWITFSQSIISTLT
modifications: ends and bridges not checked; also: MMP2 cleaved, ring opened, cut site and remnants not given here
notes: Tested after MMP2 treatment
A word on the kon: it is the rate constant with which the complex forms. Regarding B2, in [3], the koff was found to be 1.08 s⁻¹ and the on-rate constant (kon) was found to be 789 M⁻¹ s⁻¹. In addition, in [1], the Kd came out at 0.00227 µM, the koff was determined as 0.00164 s⁻¹ and the kon is 602000 M⁻¹ s⁻¹. Further, in test [4], the Kd was determined as 1370 µM.

B3: CMP-165, MMP2 cleaved (ligand)
chain: APTSSSTKKTQLQLEHLLLDLQKILNGINNYKNPKLTR[Nle]L[hSer][Yn3]KF[Ygp][Nle]PKKATELKHLQCLEEELKPLEEVL[hSer]LAQSKNFHLRPRDLISNINVIVLELKGSETTF[hSer]CEYADETATIVEFLNRWITFSQSIISTLT
modifications: also: glutaryl-peptide bridge Ala1 to Lys23 cut by MMP2, site not given here, ring opened
notes: Tested after MMP2 treatment
In the case of B3, the koff in [3] worked out at 0.237 s⁻¹; in [1], 0.00114 s⁻¹. Further, the values for the on-rate (kon) in test [3] and in test [1] were 213000 M⁻¹ s⁻¹ and 608000 M⁻¹ s⁻¹, respectively. Also, the results for the Kd in [5] and in test [6] were 1.11 µM and 0.00187 µM, respectively.

B4: CMP-167 (ligand)
chain: APTSSSTKKTQLQLEHLLLDLQKILNGINNYKNPKLTR[Nle]L[hSer][Yn3]KF[Ygp][Nle]PKKATELKHLQCLEEELKPLEEVL[hSer]LAQSKNFHLRPRDLISNINVIVLELKGSETTF[hSer]CEYADETATIVEFLNRWITFSQSIISTLT
modifications: bridge N-23; not fully specified (bridges); ends not checked
Consider B4, for which the Kd in test [7] stood at 0.215 µM; in test [8], 0.0238 µM. Besides, in [3], the koff came to 0.993 s⁻¹.

B5: CMP-165 (ligand)
chain: APTSSSTKKTQLQLEHLLLDLQKILNGINNYKNPKLTR[Nle]L[hSer][Yn3]KF[Ygp][Nle]PKKATELKHLQCLEEELKPLEEVL[hSer]LAQSKNFHLRPRDLISNINVIVLELKGSETTF[hSer]CEYADETATIVEFLNRWITFSQSIISTLT
modifications: bridge N-23; not fully specified (bridges); ends not checked; also: sequence of the cleavable peptide in the bridge not given here
In the case of B5, the koff in [3] turned out to be 0.633 s⁻¹. Besides, the equilibrium dissociation constant (Kd) in test [9] is 44.2 µM; in test [10] it was 0.0261 nM.

B6: CMP-166 (ligand)
chain: APTSSSTKKTQLQLEHLLLDLQKILNGINNYKNPKLTR[Nle]L[hSer][Yn3]KF[Ygp][Nle]PKKATELKHLQCLEEELKPLEEVL[hSer]LAQSKNFHLRPRDLISNINVIVLELKGSETTF[hSer]CEYADETATIVEFLNRWITFSQSIISTLT
modifications: bridge N-23; not fully specified (bridges); ends not checked; also: sequence of the cleavable peptide in the bridge not given here
For B6, the results for the Kd in [11] and in test [12] were 0.614 µM and 0.0161 µM, respectively. In addition, the dissociation rate constant (koff) in [3] was 0.613 s⁻¹.

B7: CMP-167, MMP2 cleaved (ligand)
chain: APTSSSTKKTQLQLEHLLLDLQKILNGINNYKNPKLTR[Nle]L[hSer][Yn3″]KF[Ygp″][Nle]PKKATELKHLQCLEEELKPLEEVL[hSer]LAQSKNFHLRPRDLISNINVIVLELKGSETTF[hSer]CEYADETATIVEFLNRWITFSQSIISTLT
modifications: ends and bridges not checked; also: MMP2 cleaved, ring opened, cut site and remnants not given here
notes: Tested after MMP2 treatment
For B7, the off-rate (koff) in [3] was 0.227 s⁻¹; in [1], 0.000923 s⁻¹. The kon in test [3] is 345000 M⁻¹ s⁻¹; in [1], 594000 M⁻¹ s⁻¹. In addition, the Kd in test [13] is 0.658 µM; in test [14] it was 0.00155 µM.

B8: CMP-166, MMP2 cleaved (ligand)
chain: APTSSSTKKTQLQLEHLLLDLQKILNGINNYKNPKLTR[Nle]L[hSer][Yn3]KF[Ygp][Nle]PKKATELKHLQCLEEELKPLEEVL[hSer]LAQSKNFHLRPRDLISNINVIVLELKGSETTF[hSer]CEYADETATIVEFLNRWITFSQSIISTLT
modifications: also: glutaryl-PEG4-peptide bridge Ala1 to Lys23 cut by MMP2, site not given here, ring opened
notes: Tested after MMP2 treatment
As for B8, the koff in [3] stood at 0.225 s⁻¹; in [1], 0.000684 s⁻¹. For the same molecule, the on-rate constant (kon) in test [3] was determined as 283000 M⁻¹ s⁻¹; in test [1], 567000 M⁻¹ s⁻¹. For the same molecule, the values for the Kd in test [15] and in [16] were 0.794 µM and 0.00121 µM, respectively.

For the origin of these results see patent US20240376170A1 (BRIGHT PEAK THERAPEUTICS, published 2024).
